In PMC3899043, “Expression Pattern and Biochemical Properties of Zebrafish N-Acetylglutamate Synthase” (PLoS ONE, 2014):
Like-named read-outs stand apart in the source and are kept apart here.

Columns and labels:
[1] = target: T1, zfNAGS-C (Danio rerio, UniProt E7FCP8); experiment: thermofluor with SYPRO Orange; format: binding; conditions: L-arginine up to 10 mM; no substrates; pH 7.5 phosphate
T1 construct: gene nags; conserved segment (AAK and NAT domains), targeting signal and variable segment removed; N-terminus at Gly73 of preprotein; N-terminal polyhistidine tag kept (pET15b); E. coli C41(DE3); predicted 52,752 Da
T1 sequence (E7FCP8 73-527): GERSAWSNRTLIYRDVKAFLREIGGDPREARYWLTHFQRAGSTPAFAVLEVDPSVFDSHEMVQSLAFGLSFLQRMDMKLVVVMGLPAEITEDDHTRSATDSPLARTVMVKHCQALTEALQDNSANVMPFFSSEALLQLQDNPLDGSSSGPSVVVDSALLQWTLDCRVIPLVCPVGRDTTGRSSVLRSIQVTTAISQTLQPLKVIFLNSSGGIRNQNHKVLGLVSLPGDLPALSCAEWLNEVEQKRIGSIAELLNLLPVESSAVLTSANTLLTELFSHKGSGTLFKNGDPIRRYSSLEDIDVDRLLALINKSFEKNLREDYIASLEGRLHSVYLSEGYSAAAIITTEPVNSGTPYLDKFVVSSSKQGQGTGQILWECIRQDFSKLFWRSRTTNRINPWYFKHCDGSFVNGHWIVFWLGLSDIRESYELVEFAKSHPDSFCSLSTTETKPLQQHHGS

[2] = target: T2, zfNAGS-M (Danio rerio, UniProt E7FCP8); experiment: enzymatic activity assay, Michaelis-Menten fit; format: biochemical; conditions: no L-arginine
T2 construct: gene nags; mature form, predicted mitochondrial targeting signal removed; N-terminus at Met47 of preprotein; N-terminal polyhistidine tag kept (pET15b); E. coli C41(DE3); predicted 55,498 Da; tetramer
T2 sequence (E7FCP8 46-527): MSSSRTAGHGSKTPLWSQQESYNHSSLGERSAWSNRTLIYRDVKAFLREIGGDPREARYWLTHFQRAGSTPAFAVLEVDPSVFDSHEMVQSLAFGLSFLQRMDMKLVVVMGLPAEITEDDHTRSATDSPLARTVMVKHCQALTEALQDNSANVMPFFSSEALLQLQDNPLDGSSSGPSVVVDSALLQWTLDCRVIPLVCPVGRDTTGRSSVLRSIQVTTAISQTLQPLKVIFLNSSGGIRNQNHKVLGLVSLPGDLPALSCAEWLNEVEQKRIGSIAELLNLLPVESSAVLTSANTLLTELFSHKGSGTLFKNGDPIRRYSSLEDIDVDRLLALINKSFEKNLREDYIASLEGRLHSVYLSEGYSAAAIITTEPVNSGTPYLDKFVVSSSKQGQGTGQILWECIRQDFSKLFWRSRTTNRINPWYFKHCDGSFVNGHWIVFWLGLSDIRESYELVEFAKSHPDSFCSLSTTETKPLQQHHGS
Source text: enzymatic activity assay, Michaelis-Menten fit on zfNAGS-M

[3] = target: mature zebrafish N-acetylglutamate synthase (zfNAGS-M) (zebrafish (Danio rerio)) (UniProt E7FCP8); experiment: SEC; analytical gel chromatography, Superdex 200 HR 10/30, room temperature, 50 mM potassium phosphate pH 7.5, 300 mM KCl, 20% glycerol, 10 mM beta-mercaptoethanol, 0.006% Triton X-100, no L-arginine; 100 ul loaded at 0.5-1.3 mg/ml (zfNAGS-M) or 0.5-2.0 mg/ml (zfNAGS-C)
[4] = substrate: CC(=O)SCCNC(=O)CCNC(=O)[C@H](O)C(C)(C)COP(=O)(O)OP(=O)(O)OC[C@H]1O[C@@H](n2cnc3c(N)ncnc32)[C@H](O)[C@@H]1OP(=O)(O)O; experiment: enzymatic activity assay, Michaelis-Menten fit; format: biochemical, Danio rerio; conditions: 15 mM L-glutamate; no L-arginine
Source text: (§1) enzymatic activity assay, Michaelis-Menten fit on zfNAGS-C

[5] = substrate: N[C@@H](CCC(=O)O)C(=O)O; experiment: enzymatic activity assay, Michaelis-Menten fit; format: biochemical, Danio rerio; conditions: 4 mM AcCoA; no L-arginine
Source text: as §1

Molecule: N=C(N)NCCC[C@H](N)C(=O)O [L-arginine]
- thermofluor with SYPRO Orange [1]: Addition of L-arginine to both zfNAGS-M and zfNAGS-C resulted in changes

Molecule: N[C@@H](CCC(=O)O)C(=O)O [L-glutamate]
- Km ([2]; 4 mM AcCoA, read-out: Glutamate / Km ^app): 1130 ± 130 µM

Molecule: CC(=O)SCCNC(=O)CCNC(=O)[C@H](O)C(C)(C)COP(=O)(O)OP(=O)(O)OC[C@H]1O[C@@H](n2cnc3c(N)ncnc32)[C@H](O)[C@@H]1OP(=O)(O)O [AcCoA]
- Km ([2]; 15 mM L-glutamate, read-out: AcCoA / Km ^app): 220 ± 30 µM

Molecule: mature zebrafish N-acetylglutamate synthase (zfNAGS-M) (from UniProt E7FCP8 47-527) (enzyme)
- stoichiometry N [3]: 4

B1: zfNAGS-C (Danio rerio) (protein)
chain: T1 sequence (E7FCP8 73-527)
notes: conserved segment (AAK and NAT domains), targeting signal and variable segment removed; N-terminus at Gly73 of preprotein; N-terminal polyhistidine tag kept (pET15b); E. coli C41(DE3); predicted 52,752 Da
- Km [4]: 230 ± 60 µM
- Vmax [4]: 32.2 µmol/min/mg
- Km [5]: 1120 ± 210 µM
- Vmax [5]: 39.5 µmol/min/mg
